This data set can be described thus: protein stability index of a GFP-peptide fusion (GPS, HEK-293T) (PSI 1-6); higher = more stable.
Where [1] appears, read: treatment: DMSO, c terminus: a fixed tail appended.
The mark [2] stands for this setting: treatment: MLN4924 1 uM, 8 h, c terminus: a fixed tail appended.

± gives the standard deviation.
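Also: 24-mer peptide tiles fused after GFP, lentivirally expressed, FACS-sorted into six equal bins by GFP/DsRed ratio, decoded by Illumina sequencing, PSI is the read-weighted mean bin number.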

As to DLRHLRAVPTDEARAFAEKNNLSF [RAB11B], the protein stability index by setting is: under setting [1], 3.63 ± 0.15; under setting [2], 3.54 ± 0.23.

For the sequence EDSLGCLTADTKEVTASQEARGLR [IRX6], the protein stability index under setting [1] was determined as 5.34 ± 0.25 and the protein stability index under setting [2] was 5.3 ± 0.27.

As to NLDANLAFASFTSGVVRIWDLRDQ [TLE6], the protein stability index under setting [1] turned out to be 2.3 ± 0.28 and the protein stability index under setting [2] was determined as 2.36 ± 0.33.

As for TTIEDEDAKARKQEIIKTTEQLIE [CAMK2B], the protein stability index came to 5.14 ± 0.22 under setting [1] and 5.32 ± 0.24 under setting [2].

In the case of SSHEPCSATCTTGVMSAYAMCVRY [ADAMTSL2], the protein stability index reads like this: under setting [1], 2.24 ± 0.3; under setting [2], 2.32 ± 0.19.

In the case of EANSSNSQKNEKALTNIQNCMAEK [C8orf76], the protein stability index was found to be 4.96 ± 0.38 under setting [1] and 4.58 ± 0.37 under setting [2].

As to QQKLVIDTVTEVTARMEMLIEELY [CBY2], the protein stability index is, setting by setting: under setting [1], 2.55 ± 0.26; under setting [2], 2.7 ± 0.42.

In the case of QASPYHPGSCGAGAPSPGSSDVST [ELF3], the protein stability index under setting [1] was found to be 4.57 ± 0.16 and the protein stability index under setting [2] was 4.52 ± 0.43.

Turning to WDIGRGKLYHQSKGPGAPQYPAGT [SPSB2], the protein stability index amounted to 3.72 ± 0.095 under setting [1] and 3.53 ± 0.07 under setting [2].

As for ASLNHLDSHILLCLMGLAETPGCA [DCAF4], the protein stability index is, setting by setting: under setting [1], 3.14 ± 0.58; under setting [2], 2.82 ± 0.34.

On to RDKARLLREKVEFLRSLRQMKQKV [NFE2L1], for which the protein stability index runs as follows: under setting [1], 2.73 ± 0.15; under setting [2], 3.14 ± 0.37.

PAQLSCLPYLEHVGHNHTYNMAPS [NFE2L1]: the protein stability index is, setting by setting: under setting [1], 2.91 ± 0.25; under setting [2], 2.96 ± 0.28.

ETAAGKGKGEARARLKRSQSFGVA [SMTNL2] returned a protein stability index under setting [1] of 4.39 ± 0.18 and a protein stability index under setting [2] of 4.71 ± 0.12.

AGSVVAAVQGLNLRSPNNFLSYYR [CCND1]: the protein stability index was 2.58 ± 0.2 under setting [1] and 2.61 ± 0.32 under setting [2].

Turning to TIRLNISDVNDNAPRFNQQLYTAY [PCDHGC5], the protein stability index is, setting by setting: under setting [1], 2.41 ± 0.18; under setting [2], 2.37 ± 0.2.

For GVIATKQFSRGDFVVEYHGDLIEI [KMT5A], the protein stability index under setting [1] was 2.37 ± 0.31 and the protein stability index under setting [2] amounted to 1.68 ± 0.17.

Turning to ELVPKQPQKRKPQEQLLECNKLCG [SLC2A12], the protein stability index was 3.44 ± 0.45 under setting [1] and 4.18 ± 0.18 under setting [2].

Regarding SRFISANLPCNKFKNRLVNIMPYE [PTPRD], the protein stability index is, setting by setting: under setting [1], 2.13 ± 0.42; under setting [2], 1.98 ± 0.13.

For VVPEKLDDLVPKGKKFLLLSINRY [ALG2], the protein stability index runs as follows: under setting [1], 2.07 ± 0.36; under setting [2], 2.08 ± 0.42.

ASVINNMLAEIFCQTGGVEDQEEW [ZBED1] had a protein stability index under setting [1] of 3.31 ± 0.31 and a protein stability index under setting [2] of 3.89 ± 0.33.

Take MKGRGQLEKPPAPNQAMVVAAAGD [TBC1D10A]: the protein stability index worked out at 5 ± 0.26 under setting [1] and 4.94 ± 0.49 under setting [2].

IVHVEKEEVPEGMEEAAVASVVLP [BCL2L13]: the protein stability index worked out at 5.11 ± 0.16 under setting [1] and 5.07 ± 0.19 under setting [2].

For the sequence MDEAVGDLKQALPCVAESPTVHVE [TRIP13], the protein stability index stood at 5.18 ± 0.13 under setting [1] and 5.01 ± 0.19 under setting [2].

In the case of PKKKHLDYLIQATNETNVNIPQMA [SNAP91], the protein stability index by setting is: under setting [1], 3.67 ± 0.13; under setting [2], 3.43 ± 0.33.

Sequence RYGCGHRGCGDGCCCPSCYRRYRF [KRTAP19-2] yielded a protein stability index under setting [1] of 3.29 ± 0.27 and a protein stability index under setting [2] of 3.62 ± 0.54.

FEAYAKICDPGLTSFEPEALGNLV [CAMK2B]: the protein stability index was 2.71 ± 0.37 under setting [1] and 2.76 ± 0.32 under setting [2].

Turning to VFFLFPHSVLVDDDGIKVVKVTFN [TMEM106C], the protein stability index is, setting by setting: under setting [1], 2.76 ± 0.45; under setting [2], 2.65 ± 0.74.

Consider QKRETLSPLCLIPMVTSPREEQQL [KCTD13], for which the protein stability index came to 3.98 ± 0.18 under setting [1] and 4.08 ± 0.15 under setting [2].

With SRAALVCRKWNQMMYSAELWRYRT [FBXO39], the protein stability index under setting [1] turned out to be 2.45 ± 0.56 and the protein stability index under setting [2] turned out to be 2.15 ± 0.25.

For KIASLLGLLSKTAGFSPDCIMDDA [INTS4], the protein stability index reads like this: under setting [1], 2.57 ± 0.58; under setting [2], 2.19 ± 0.55.

Sequence PAQPGADSSFPPALAEGYRYPELD [TBX6] had a protein stability index under setting [1] of 5.14 ± 0.18 and a protein stability index under setting [2] of 5.01 ± 0.36.

On to DGSKSEDELDQASTPTDVRDIDL [CCND2], for which the protein stability index is, setting by setting: (treatment: DMSO, c terminus: native) 4.41 ± 0.26; (treatment: MLN4924 1 uM, 8 h, c terminus: native) 4.71 ± 0.33.

For RMLTDKEREMAEIRDQMQQQLNDY [LMNB1], the protein stability index reads like this: under setting [1], 4.93 ± 0.3; under setting [2], 5.08 ± 0.19.

With RGVRRTASTPTPDDKLFQKLAKVY [CPN1], the protein stability index was 2.61 ± 0.29 under setting [1] and 2.86 ± 0.27 under setting [2].

Turning to YFISTVKRSWTSAQNACSEHGATL [CD69], the protein stability index was found to be 2.09 ± 0.49 under setting [1] and 2.07 ± 0.3 under setting [2].

Take WQLLLFLCATHFGEPLEKVASVGN [KISS1]: the protein stability index reads like this: under setting [1], 2.78 ± 1.2; under setting [2], 2.29 ± 0.35.

Turning to VILEVSLEGSHDTANCEACTLGIC [RTP4], the protein stability index is, setting by setting: under setting [1], 3.86 ± 0.13; under setting [2], 3.78 ± 0.28.

As to KATNVVMNYSEIESKVREATNDDP [CLINT1], the protein stability index is, setting by setting: under setting [1], 5.35 ± 0.27; under setting [2], 5.34 ± 0.15.

Take GAAGRSQEPEVPCAAVLPGKPGDR [RSPH3]: the protein stability index reads like this: under setting [1], 5.31 ± 0.29; under setting [2], 5.31 ± 0.2.

Regarding NEKITMQNLNDRLASYLEKVRALE [KRT13], the protein stability index reads like this: under setting [1], 2.86 ± 0.4; under setting [2], 3 ± 0.32.

With FSPAKPKPSKELKPLLGSAVLGLL [MYORG], the protein stability index is, setting by setting: under setting [1], 2.15 ± 0.53; under setting [2], 2.21 ± 0.17.

As for KERDLRDVGDWRKNIEEKSGMEGR [TNNI2], the protein stability index reads like this: under setting [1], 5.07 ± 0.25; under setting [2], 5.15 ± 0.3.

For LDQKKQDPRVQDFLQRCLESPFSR [NET1], the protein stability index came out at 3.51 ± 0.18 under setting [1] and 3.55 ± 0.44 under setting [2].

For PCIPPGFRNLVADRVLNYTSWSQH [SPAG8], the protein stability index is, setting by setting: under setting [1], 2.14 ± 0.15; under setting [2], 2.37 ± 0.27.

Take TKELDQWIEQLNECKQLSESQVKS [PPP2CA]: the protein stability index is, setting by setting: under setting [1], 4.71 ± 0.094; under setting [2], 4.69 ± 0.12.

Regarding HGLWDSLVYDVEVKSHLLDYVMTT [TRIP13], the protein stability index by setting is: under setting [1], 2.28 ± 0.32; under setting [2], 2.2 ± 0.34.

Consider TDCGKAFLKKSQLTEHKRIHTGKK [ZNF649], for which the protein stability index runs as follows: under setting [1], 3.62 ± 0.5; under setting [2], 3.48 ± 0.42.

Take MEVQHFRTIYHMFIAGLCVFIIST [SOAT2]: the protein stability index was found to be 2.95 ± 0.27 under setting [1] and 3.18 ± 0.52 under setting [2].

In the case of RQLVEADINGLRRILDELTLCKAD [KRT36], the protein stability index turned out to be 3.2 ± 0.24 under setting [1] and 3.32 ± 0.26 under setting [2].

For the sequence SDNSWVLAGSESLPVETLGPASRM [PBXIP1], the protein stability index by setting is: under setting [1], 3.83 ± 0.15; under setting [2], 4.02 ± 0.5.

GYLDYRKKAIKDLGISPSTCSFNP [GLT8D2] yielded a protein stability index under setting [1] of 2.85 ± 0.22 and a protein stability index under setting [2] of 2.89 ± 0.34.

Take LEQIMESVKSKIGELEDESLNRAC [CEP70]: the protein stability index worked out at 4.47 ± 0.35 under setting [1] and 4.46 ± 0.36 under setting [2].

On to MTMIVSLAAVAWVGQQVHNLLLTY [ARL6IP1], for which the protein stability index runs as follows: under setting [1], 3.31 ± 0.37; under setting [2], 3.25 ± 0.32.

EPAGGGRSREARSRLLLLEQELKT [SMAD6]: the protein stability index is, setting by setting: under setting [1], 4.63 ± 0.44; under setting [2], 4.87 ± 0.088.

For the sequence MNGEECAEDLRMLDASGEKMNGSH [IKZF1], the protein stability index runs as follows: under setting [1], 5.15 ± 0.39; under setting [2], 5.31 ± 0.18.

As for FKLFFNGRPGIVAWTLINLSFAAK [DHCR7], the protein stability index is, setting by setting: under setting [1], 3.03 ± 0.28; under setting [2], 2.46 ± 0.31.

NPLICPVCTKYNLRITSGVVVCQC [RPAIN]: the protein stability index was 3.91 ± 0.32 under setting [1] and 4.16 ± 0.25 under setting [2].

As to FSPDGPSRFRKAYKPEQPLVRLRG [LOXL2], the protein stability index by setting is: under setting [1], 2.5 ± 0.58; under setting [2], 3.39 ± 0.68.

As for EPNTFSPANVDASVMYRKWKESKG [CDC34], the protein stability index is, setting by setting: under setting [1], 4.69 ± 0.15; under setting [2], 4.59 ± 0.17.

As to VSVPENLPVGTQLLTVTATDRDEG [PCDHGA10], the protein stability index is, setting by setting: under setting [1], 5.42 ± 0.38; under setting [2], 5.27 ± 0.12.

Consider RRLGLSTLGELKQNLSRSWHDVQV [TPD52L2], for which the protein stability index is 2.9 ± 0.24 under setting [1] and 2.96 ± 0.24 under setting [2].

On to RKEMATILSKMPKPKPPPNSEGEQ [CCNC], for which the protein stability index reads like this: under setting [1], 5.06 ± 0.34; under setting [2], 5.06 ± 0.19.

For LTPSSKEMMSQALKATFSGFTKEQ [ETS1], the protein stability index is, setting by setting: under setting [1], 3.87 ± 0.24; under setting [2], 3.74 ± 0.19.

Take SLFAFKSFRENWQRAWVRALNEQA [C2CD2L]: the protein stability index under setting [1] was determined as 2.15 ± 0.08 and the protein stability index under setting [2] was 2.1 ± 0.23.

For AYPFYWAWLPQAKVPFSQEIKDLI [PI4K2A], the protein stability index by setting is: under setting [1], 2.23 ± 0.32; under setting [2], 2.13 ± 0.14.

For DLVERALYSMECAFHPLFSLTSGA [TCF25], the protein stability index reads like this: under setting [1], 3.09 ± 1.3; under setting [2], 2.84 ± 0.93.

With QNMMNHCNLWDSHHPEVPQRILRI [HDAC6], the protein stability index was 2.2 ± 0.24 under setting [1] and 2.15 ± 0.083 under setting [2].

In the case of YGFYLRAGSEQKGQIIKDIDSGSP [PDZK1], the protein stability index stood at 3.2 ± 0.17 under setting [1] and 3.17 ± 0.36 under setting [2].

For MVFSGLCPLLLGSVMAIERCIGVT [PTGFR], the protein stability index worked out at 3.4 ± 0.078 under setting [1] and 3.37 ± 0.41 under setting [2].

For the sequence LFIQKEEQLQQILKRKNKQAFLDE [MNAT1], the protein stability index reads like this: under setting [1], 2.5 ± 0.47; under setting [2], 2.61 ± 0.32.

Consider DIIRKQVLGTKVDAERDGVKVPTT [CDC34], for which the protein stability index is 4.2 ± 0.34 under setting [1] and 4.23 ± 0.17 under setting [2].

As to GPLPPAPAMVRISKPKTFQAYLDD [YPEL3], the protein stability index runs as follows: under setting [1], 3.73 ± 0.18; under setting [2], 4.33 ± 0.37.

The record behind these values is the supplement of paper PMC10567573.
